# Laboratory results: patent US20250263462A1 (US Dept. of Health and Human Services, published 2025)
# Assays:
# Test in all cases: cell-based or functional assay
# [1] = molecular target: HLA-A11 on COS7/A11 cells expressing the WT KRAS minigene (23-mer SEQ ID NO: 118) (human, UniProt A*11:01)
# [2] = molecular target: HLA-A11 on COS7/A11 cells expressing the KRAS G12V minigene (23-mer SEQ ID NO: 120) (human, UniProt A*11:01)
# [3] = molecular target: HLA-A11 on COS7/A11 cells expressing the KRAS G12D minigene (23-mer SEQ ID NO: 119) (human, UniProt A*11:01)
# [4] = molecular target: T1, KRAS G12D 10-mer peptide … (SEQ ID NO: 2) presented by HLA-A11 on pulsed cells (human, UniProt A*11:01)
# [5] = molecular target: T2, WT KRAS 10-mer peptide (SEQ ID NO: 30) presented by HLA-A11 on pulsed cells (human, UniProt A*11:01)
# [6] = molecular target: KRAS G12V 10-mer peptide … (SEQ ID NO: 33) presented by HLA-A11 on pulsed cells (human, UniProt A*11:01)
# [7] = molecular target: KRAS G12D 9-mer peptide KRAS8-16 … (SEQ ID NO: 34) presented by HLA-A11 on pulsed cells (human, UniProt A*11:01)
# [8] = molecular target: T1, KRAS G12D 10-mer peptide … (SEQ ID NO: …); remark: listed apart in the source
# [9] = molecular target: T2, WT KRAS 10-mer peptide (SEQ ID NO: 30) …; remark: listed apart in the source
binder,measurement,setting,value
"TRAV19*01 + TRBV4*01 TCR chain pair (TCR, V domains shown) V domain 1: GQQVKQSSPSLTVQEGGILILNCDYENDMFDYFAWYKKYPDNSPTLLISVRSNVDKREDGRFTVFLNKSGKHFSLHITASQPEDTAVYLCAAGDSGGSNYKLTFGKGTLLTVTP V domain 2: ETAVFQTPNYHVTQVGNEVSFNCKQTLGHDTMYWYKQDSKKLLKIMFSYNNKQLIVNETVPRRFSPQSSDKAHLNLRIKSVEPEDSAVYLCASSRDWGPAEQFFGPGTRLTVLE","IFN-γ, PBL + Cos7/A11 minigene transfectant",[1],32 pg/mL
same,"IFN-γ, PBL + Cos7/A11 minigene transfectant",[2],30 pg/mL
same,"IFN-γ, PBL + Cos7/A11 minigene transfectant",[3],27 pg/mL
same,"IFN-γ, PBL + pulsed Cos7/A11",[4],30 pg/mL
same,"IFN-γ, PBL + pulsed Cos7/A11",[5],30 pg/mL
same,"IFN-γ, PBL + pulsed Cos7/A11",[6],27 pg/mL
"TRAV3-3*01 + TRBV13-1*02 TCR chain pair (TCR, V domains shown) V domain 1: GEQVEQRPPHLSVREGDSAVITCTYTDPNSYYFFWYKQEPGASLQLLMKVFSSTEINEGQGFTVLLNKKDKRLSLNLTAAHPGDSAAYFCAVSGGTNSAGNKLTFGIGTRVLVRP V domain 2: EAAVTQSPRNKVTVTGGNVTLSCRQTNSHNYMYWYRQDTGHGLRLIHYSYGAGNLQIGDVPDGYKATRTTQEDFFLLLELASPSQTSLYFCASASWGGYAEQFFGPGTRLTVLE","IFN-γ, PBL + Cos7/A11 minigene transfectant",[1],51 pg/mL
same,"IFN-γ, PBL + Cos7/A11 minigene transfectant",[2],61 pg/mL
same,"IFN-γ, PBL + Cos7/A11 minigene transfectant",[3],56 pg/mL
same,"IFN-γ, PBL + pulsed Cos7/A11",[4],49 pg/mL
same,"IFN-γ, PBL + pulsed Cos7/A11",[5],47 pg/mL
same,"IFN-γ, PBL + pulsed Cos7/A11",[6],44 pg/mL
"TRAV3-3*01/TRBV4*01 murine anti-KRAS G12V TCR (SEQ ID NOs: 133 and 134) (TCR, V domains shown) V domain 1: GEQVEQRPPHLSVREGDSAVITCTYTDPNSYYFFWYKQEPGASLQLLMKVFSSTEINEGQGFTVLLNKKDKRLSLNLTAAHPGDSAAYFCAVSGGTNSAGNKLTFGIGTRVLVRP V domain 2: ETAVFQTPNYHVTQVGNEVSFNCKQTLGHDTMYWYKQDSKKLLKIMFSYNNKQLIVNETVPRRFSPQSSDKAHLNLRIKSVEPEDSAVYLCASSRDWGPAEQFFGPGTRLTVLE","IFN-γ, PBL + Cos7/A11 minigene transfectant",[1],41 pg/mL
same,"IFN-γ, PBL + Cos7/A11 minigene transfectant",[2],11100 pg/mL
same,"IFN-γ, PBL + Cos7/A11 minigene transfectant",[3],38 pg/mL
same,"IFN-γ, PBL + Cos7/A11 pulsed at 10^-6 (10^× µM)",[7],47 pg/mL
same,"IFN-γ, PBL + Cos7/A11 pulsed at 10^-7 (10^× µM)",[7],48 pg/mL
same,"IFN-γ, PBL + Cos7/A11 pulsed at 10^-8 (10^× µM)",[7],49 pg/mL
same,"IFN-γ, PBL + Cos7/A11 pulsed at 10^-9 (10^× µM)",[7],44 pg/mL
same,"IFN-γ, PBL + Cos7/A11 pulsed at 10^-10 (10^× µM)",[7],52 pg/mL
same,"IFN-γ, PBL + Cos7/A11 pulsed at 10^-11 (10^× µM)",[7],49 pg/mL
same,"IFN-γ, PBL + Cos7/A11 pulsed at 10^-12 (10^× µM)",[7],55 pg/mL
same,"IFN-γ, PBL + Cos7/A11 pulsed at 10^-13 (10^× µM)",[7],52 pg/mL
same,"IFN-γ, PBL + Cos7/A11 pulsed at 10^-6 (10^× µM)",[8],43 pg/mL
same,"IFN-γ, PBL + Cos7/A11 pulsed at 10^-7 (10^× µM)",[8],40 pg/mL
same,"IFN-γ, PBL + Cos7/A11 pulsed at 10^-8 (10^× µM)",[8],46 pg/mL
same,"IFN-γ, PBL + Cos7/A11 pulsed at 10^-9 (10^× µM)",[8],41 pg/mL
same,"IFN-γ, PBL + Cos7/A11 pulsed at 10^-10 (10^× µM)",[8],53 pg/mL
same,"IFN-γ, PBL + Cos7/A11 pulsed at 10^-11 (10^× µM)",[8],43 pg/mL
same,"IFN-γ, PBL + Cos7/A11 pulsed at 10^-12 (10^× µM)",[8],49 pg/mL
same,"IFN-γ, PBL + Cos7/A11 pulsed at 10^-13 (10^× µM)",[8],49 pg/mL
same,"IFN-γ, PBL + Cos7/A11 pulsed at 10^-6 (10^× µM)",[9],50 pg/mL
same,"IFN-γ, PBL + Cos7/A11 pulsed at 10^-7 (10^× µM)",[9],42 pg/mL
same,"IFN-γ, PBL + Cos7/A11 pulsed at 10^-8 (10^× µM)",[9],50 pg/mL
same,"IFN-γ, PBL + Cos7/A11 pulsed at 10^-9 (10^× µM)",[9],50 pg/mL
same,"IFN-γ, PBL + Cos7/A11 pulsed at 10^-10 (10^× µM)",[9],48 pg/mL
same,"IFN-γ, PBL + Cos7/A11 pulsed at 10^-11 (10^× µM)",[9],55 pg/mL
same,"IFN-γ, PBL + Cos7/A11 pulsed at 10^-12 (10^× µM)",[9],47 pg/mL
same,"IFN-γ, PBL + Cos7/A11 pulsed at 10^-13 (10^× µM)",[9],68 pg/mL
same,"IFN-γ, PBL + pulsed Cos7/A11",[4],39 pg/mL
same,"IFN-γ, PBL + pulsed Cos7/A11",[5],36 pg/mL
